Assays:
[1] = system: STAT1 (Tyr701-phosphorylated; GAF) (human (U6A cells)); experiment: EMSA; conditions: Combined cytoplasmic and nuclear extracts of U6A cells (IFN-beta 500 U/ml or IFN-gamma 50 U/ml, 1 h), normalized for pY701-STAT1; 10 nM dsDNA probe; buffer …
STAT1 N domain [2] = molecular target: STAT1 N domain (UniProt P42224); experiment: AUC; sedimentation equilibrium of one N domain alone; homodimer to monomers; concentrations not given
importin-α5 = importin-α5 (UniProt P52294); experiment: anti-FLAG co-immunoprecipitation, immunoblot; conditions: reference: STAT1-YFP wild type; sites Y701
STAT2 N domain (human) = STAT2 N domain (human) (UniProt P52630); experiment: AUC; sedimentation equilibrium of one N domain alone; homodimer to monomers; concentrations not given
STAT1 N domain [3] = molecular target: STAT1 N domain (UniProt P42224); experiment: AUC; sedimentation equilibrium; STAT1 N domain and mEGFP-tagged STAT2 N domain at final equimolar concentrations of 2.5, 10 and 40 uM; heterodimer to monomers

Sequence of STAT1 N domain (P42224 whole entry): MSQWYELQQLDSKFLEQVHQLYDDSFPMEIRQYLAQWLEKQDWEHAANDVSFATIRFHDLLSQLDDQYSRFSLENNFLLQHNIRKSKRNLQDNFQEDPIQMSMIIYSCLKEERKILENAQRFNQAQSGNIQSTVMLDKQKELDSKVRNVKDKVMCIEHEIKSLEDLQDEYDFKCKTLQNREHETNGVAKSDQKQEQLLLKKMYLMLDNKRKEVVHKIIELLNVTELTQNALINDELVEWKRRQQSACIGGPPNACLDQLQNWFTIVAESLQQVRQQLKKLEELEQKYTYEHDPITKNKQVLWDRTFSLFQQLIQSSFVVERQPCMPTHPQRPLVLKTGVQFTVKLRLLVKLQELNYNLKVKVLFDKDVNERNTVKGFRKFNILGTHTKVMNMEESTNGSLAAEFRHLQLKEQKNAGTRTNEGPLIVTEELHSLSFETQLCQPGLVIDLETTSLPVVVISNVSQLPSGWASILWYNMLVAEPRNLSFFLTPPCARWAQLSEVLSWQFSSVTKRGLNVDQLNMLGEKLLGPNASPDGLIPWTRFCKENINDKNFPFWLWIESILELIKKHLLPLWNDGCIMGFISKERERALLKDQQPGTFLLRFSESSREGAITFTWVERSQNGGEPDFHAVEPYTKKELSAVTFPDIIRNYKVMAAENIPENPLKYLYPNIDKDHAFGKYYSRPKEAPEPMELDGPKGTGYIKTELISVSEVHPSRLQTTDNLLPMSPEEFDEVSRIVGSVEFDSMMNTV

Substance: GAS (M67) probe
- binding signal (% of GAF activity without STAT2) [1]: 25

Substance: STAT1 N domain (from UniProt P42224 1-750) (domain or fragment)
- Kd (STAT1 N domain [2]): 16.6 µM

Substance: STAT1 (from UniProt P42224) STAT1-YFP Y701F
- binding against the reference (importin-α5): lost

Substance: STAT2 N domain (from UniProt P52630 1-851) (domain or fragment)
- Kd (STAT2 N domain (human)): 704 µM
- Kd (STAT1 N domain [3]): 0.01 µM

Substance: STAT2 N domain LL81,82AA (from UniProt P52630 1-851) (domain or fragment)
- Kd (STAT1 N domain [3]): 5480 µM

Reference: publication PMC5079630
